This test addresses HLA-A*02:01 (Homo sapiens, UniProt P04439, D140Y/D185E/D98H/E176V/E277Q/G131W/G231S/I119V/I121R/I166T/I218V/L300P/L318F/N151K/N90K/P208A/P217A/Q86G/Q94H/R138H/R169H/T345S). The test is described as follows: MHC binding assay (UV-ligand exchange, beta2m ELISA, peptide exchange yield). The settings on record: binding of HLA-class I restricted peptides to HLA-A*02:01, ranged by peptide exchange yield (UV-ligand exchange, β2m ELISA). The source says:
Candidate peptides for T cell based therapies according to the present invention were further tested for their MHC binding capacity (affinity). The individual peptide-MHC complexes were produced by UV-ligand exchange, where a UV-sensitive peptide is cleaved upon UV-irradiation, and exchanged with the peptide of interest as analyzed. Only peptide candidates that can effectively bind and stabilize the peptide-receptive MHC molecules prevent dissociation of the MHC complexes. To determine the yield of the exchange reaction, an ELISA was performed based on the detection of the light chain (β2m) of stabilized MHC complexes. The assay was performed as generally described in Rodenko et al. (Rodenko et al., 2006).
96 well MAXISorp plates (NUNC) were coated over night with 2ug/ml streptavidin in PBS at room temperature, washed 4× and blocked for 1 h at 37° C. in 2% BSA containing blocking buffer. […] Peptide-MHC monomers of the UV-exchange reaction were diluted 100 fold in blocking buffer. Samples were incubated for 1 h at 37° C., washed four times, incubated with 2ug/ml HRP conjugated anti-82m for 1 h at 37° C., washed again and detected with TMB solution that is stopped with […]. Absorption was measured at 450 nm. Candidate peptides that show a high exchange yield (preferably higher than 50%, most preferred higher than 75%) are generally preferred for a generation and production of antibodies or fragments thereof, and/or T cell receptors or fragments thereof, as they show sufficient avidity to the MHC molecules and prevent dissociation of the MHC complexes.

As for “204 (KIAENVEEV; listed as Homo sapiens) [compound 204]”, the Peptide exchange entry is “″++″ (≥20% = ++)”. Turning to “171 (LLLPLQILL; listed as Homo sapiens) [compound 171]”, the Peptide exchange entry was “″+++″ (≥50% = +++)”. As for “490 (FLLQHVQEL; listed as Homo sapiens) [compound 490]”, the Peptide exchange entry is on record as “″+++″ (≥50% = +++)”.

As for “401 (ILLDDTGLAYI; listed as Homo sapiens) [compound 401]”, the Peptide exchange result is listed as “″+++″ (≥50% = +++)”.

As to “288 (NLINEINGV; listed as Homo sapiens) [compound 288]”, the Peptide exchange entry is on record as “″+++″ (≥50% = +++)”. As for “378 (ALGYFVPYV; listed as Homo sapiens) [compound 378]”, the Peptide exchange entry is “″+++″ (≥50% = +++)”.

With “575 (YLISQVEGHQV; listed as Homo sapiens) [compound 575]”, the Peptide exchange entry is “″+++″ (≥50% = +++)”. Regarding “343 (SLLEVNEESTV; listed as Homo sapiens) [compound 343]”, the Peptide exchange entry is given as “″+++″ (≥50% = +++)”. As for “157 (SLNDEVPEV; listed as Homo sapiens) [compound 157]”, the Peptide exchange entry is “″++″ (≥20% = ++)”. The entry for “583 (ILANDGVLLAA; listed as Homo sapiens) [compound 583]” is “″+++″ (≥50% = +++)”.

For the substance “367 (SLQNHNHQL; listed as Homo sapiens) [compound 367]”, the Peptide exchange entry is reported as “″+++″ (≥50% = +++)”. In the case of “173 (LLDSASAGLYL; listed as Homo sapiens) [compound 173]”, the Peptide exchange entry is reported as “″+++″ (≥50% = +++)”. As for “593 (GLPRFGIEMV; listed as Homo sapiens) [compound 593]”, the Peptide exchange entry is recorded as “″+++″ (≥50% = +++)”.

For the substance “185 (FLIDDKGYTL; listed as Homo sapiens) [compound 185]”, the Peptide exchange entry is reported as “″++″ (≥20% = ++)”. Take “392 (ALLHPQGFEV; listed as Homo sapiens) [compound 392]”: the Peptide exchange entry is “″++″ (≥20% = ++)”.

Consider “10 (FLATFPLAAV; listed as Homo sapiens) [compound 10]”, for which the Peptide exchange entry is recorded as “″++++″ (≥75% = ++++)”. Turning to “590 (SLIEKLWQT; listed as Homo sapiens) [compound 590]”, the Peptide exchange result is recorded as “″++″ (≥20% = ++)”. Regarding “147 (SLLEAVSFL; listed as Homo sapiens) [compound 147]”, the Peptide exchange entry was “″+++″ (≥50% = +++)”. Take “87 (ALPEAPAPLLPHIT; listed as Homo sapiens) [compound 87]”: the Peptide exchange result is listed as “″++″ (≥20% = ++)”. Consider “116 (YHIDEEVGF; listed as Homo sapiens) [compound 116]”, for which the Peptide exchange entry is on record as “″+″ (≥10% = +)”.

Take “75 (GLLEVMVNL; listed as Homo sapiens) [compound 75]”: the Peptide exchange entry is “″+++″ (≥50% = +++)”. With “571 (LLLTTIPQI; listed as Homo sapiens) [compound 571]”, the Peptide exchange result is “″+++″ (≥50% = +++)”.

For “600 (ALAAPDIVPAL; listed as Homo sapiens) [compound 600]”, the Peptide exchange entry is “″+++″ (≥50% = +++)”.

For “174 (ALAQYLITA; listed as Homo sapiens) [compound 174]”, the Peptide exchange entry is given as “″+++″ (≥50% = +++)”. On to “428 (KLGHTDILVGV; listed as Homo sapiens) [compound 428]”, for which the Peptide exchange result is on record as “″++″ (≥20% = ++)”. Consider “525 (VLLEAGEGLVTI; listed as Homo sapiens) [compound 525]”, for which the Peptide exchange entry is given as “″+++″ (≥50% = +++)”. For “353 (YLFEMDSSL; listed as Homo sapiens) [compound 353]”, the Peptide exchange entry is given as “″++″ (≥20% = ++)”. For “32 (KLDDLTQDLTV; listed as Homo sapiens) [compound 32]”, the Peptide exchange entry is listed as “″++″ (≥20% = ++)”. “20 (RMIEYFIDV; listed as Homo sapiens) [compound 20]”: the Peptide exchange entry is “″+++″ (≥50% = +++)”.

(Values after patent US10253076B2, “Peptides and combination of peptides for use in immunotherapy against ovarian cancer and other cancers” (immatics biotechnologies GmbH, priority 2015, dated 2019).)
